From US20040213795A1

Target: Human PD-1 fusion protein (human) (UniProt Q15116)
Test: ELISA on coated human PD-1/IgG chimera (2.5 ug/ml), HRP anti-murine antibody

Sequence of Human PD-1 fusion protein (human) (Q15116 other isoform, or with tags, fused parts or gaps): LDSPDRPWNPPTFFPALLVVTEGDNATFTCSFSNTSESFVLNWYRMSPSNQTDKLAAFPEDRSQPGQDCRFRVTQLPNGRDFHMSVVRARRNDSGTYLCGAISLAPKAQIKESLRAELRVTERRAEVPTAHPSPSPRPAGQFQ

Q: Which EC50 (read off the curve) does the source give for Murine anti-human PD-1 antibody J110 here?
A: 1 µg/mL
